In US20240376170A1 (BRIGHT PEAK THERAPEUTICS, published 2024):
[ ]: non-standard residue; d: D form. 8x polyethylene glycol‑amino = O-(8x polyethylene glycol-amino)-tyrosine, SITE 45; 9x polyethylene glycol‑azido = O-(9x polyethylene glycol-azido)-tyrosine, SITE 42; Ygp = O-(8x polyethylene glycol-amino)-tyrosine (Tyr, amino-capped PEG8); Yn3 = O-(9x polyethylene glycol-azido)-tyrosine (Tyr, azide-capped PEG9); hSer = N[C@@H](CCO)C(=O)O; Nle = CCCC[C@H](N)C(=O)O

T1: IL-2 receptor βγ complex (human, UniProt P14784 27-551; P31785 23-369)
T1 sequence (looked up) 1: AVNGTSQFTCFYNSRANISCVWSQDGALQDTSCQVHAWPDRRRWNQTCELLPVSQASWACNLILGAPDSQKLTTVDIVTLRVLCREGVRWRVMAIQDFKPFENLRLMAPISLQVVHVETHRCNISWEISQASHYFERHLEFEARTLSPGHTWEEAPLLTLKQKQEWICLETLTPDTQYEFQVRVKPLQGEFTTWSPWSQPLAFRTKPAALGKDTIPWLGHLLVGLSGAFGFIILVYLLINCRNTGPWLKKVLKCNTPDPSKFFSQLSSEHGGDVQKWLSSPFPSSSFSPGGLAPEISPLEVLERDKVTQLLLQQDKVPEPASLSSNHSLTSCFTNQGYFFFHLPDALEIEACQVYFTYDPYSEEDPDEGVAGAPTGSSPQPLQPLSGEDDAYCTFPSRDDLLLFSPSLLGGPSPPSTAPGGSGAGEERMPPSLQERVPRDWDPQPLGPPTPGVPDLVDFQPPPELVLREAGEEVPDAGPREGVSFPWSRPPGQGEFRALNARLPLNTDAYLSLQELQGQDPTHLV
T1 sequence (looked up) 2: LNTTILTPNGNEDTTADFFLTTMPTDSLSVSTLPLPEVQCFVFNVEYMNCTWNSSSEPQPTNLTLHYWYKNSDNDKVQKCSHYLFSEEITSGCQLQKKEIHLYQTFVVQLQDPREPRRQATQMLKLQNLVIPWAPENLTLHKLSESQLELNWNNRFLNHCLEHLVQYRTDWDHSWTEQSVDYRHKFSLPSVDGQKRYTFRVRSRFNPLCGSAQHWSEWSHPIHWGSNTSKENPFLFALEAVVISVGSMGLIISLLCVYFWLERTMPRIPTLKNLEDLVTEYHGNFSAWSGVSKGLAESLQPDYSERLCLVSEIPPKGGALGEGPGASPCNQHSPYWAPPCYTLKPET


Molecular target: T1, IL-2 receptor βγ complex
Test: cell-based or functional assay

Binder	Average EC50, pSTAT5 Assay in NK cells
CMP-310, uPa cleaved molecule (ligand, also: m73 after uPa cleavage: Lys23 side-chain branch (cleavable peptide) cut, remnant not given here) APTSSSTKKTQLQLEHLLLDLQKILNGINNYKNPKLTR[Nle]L[hSer][Yn3]KF[Ygp][Nle]PKKATELKHLQCLEEELKPLEEVL[hSer]LAQSKNFHLRPRDLISNINVIVLELKGSETTF[hSer]CEYADETATIVEFLNRWITFSQSIISTLT	6.79 nM
CMP-313, MMP2 cleaved molecule (ligand, also: m81 after MMP2 cleavage: Lys23 side-chain branch (cleavable peptide) cut, remnant not given here) APTSSSTKKTQLQLEHLLLDLQKILNGINNYKNPKLTR[Nle]L[hSer][Yn3]KF[Ygp][Nle]PKKATELKHLQCLEEELKPLEEVL[hSer]LAQSKNFHLRPRDLISNINVIVLELKGSETTF[hSer]CEYADETATIVEFLNRWITFSQSIISTLT	35 pM
CMP-313, Matriptase cleaved molecule (ligand, also: m81 after matriptase cleavage: Lys23 side-chain branch (cleavable peptide) cut, remnant not given here) APTSSSTKKTQLQLEHLLLDLQKILNGINNYKNPKLTR[Nle]L[hSer][Yn3]KF[Ygp][Nle]PKKATELKHLQCLEEELKPLEEVL[hSer]LAQSKNFHLRPRDLISNINVIVLELKGSETTF[hSer]CEYADETATIVEFLNRWITFSQSIISTLT	0.714 nM
CMP-314, MMP2 cleaved molecule (ligand, also: K23 side chain attached to another sequence, m85 after MMP2 cleavage, product not given here as a sequence) APTSSSTKKTQLQLEHLLLDLQKILNGINNYKNPKLTR[Nle]L[hSer]Y(9x polyethylene glycol‑azido)KFY(8x polyethylene glycol‑amino)[Nle]PKKATELKHLQCLEEELKPLEEVL[hSer]LAQSKNFHLRPRDLISNINVIVLELKGSETTF[hSer]CEYADETATIVEFLNRWITFSQSIISTLT	40 pM
CMP-313, uPa cleaved molecule (ligand, also: K23 side chain attached to another sequence, m81 after uPa cleavage, product not given here as a sequence) APTSSSTKKTQLQLEHLLLDLQKILNGINNYKNPKLTR[Nle]L[hSer]Y(9x polyethylene glycol‑azido)KFY(8x polyethylene glycol‑amino)[Nle]PKKATELKHLQCLEEELKPLEEVL[hSer]LAQSKNFHLRPRDLISNINVIVLELKGSETTF[hSer]CEYADETATIVEFLNRWITFSQSIISTLT	81 pM
CMP-310, MMP2 cleaved molecule (ligand, also: m73 after MMP2 cleavage: Lys23 side-chain branch (cleavable peptide) cut, remnant not given here) APTSSSTKKTQLQLEHLLLDLQKILNGINNYKNPKLTR[Nle]L[hSer][Yn3]KF[Ygp][Nle]PKKATELKHLQCLEEELKPLEEVL[hSer]LAQSKNFHLRPRDLISNINVIVLELKGSETTF[hSer]CEYADETATIVEFLNRWITFSQSIISTLT	4.07 nM
CMP-311, Matriptase cleaved molecule (ligand, also: m77 after matriptase cleavage: Lys23 side-chain branch (cleavable peptide) cut, remnant not given here) APTSSSTKKTQLQLEHLLLDLQKILNGINNYKNPKLTR[Nle]L[hSer][Yn3]KF[Ygp][Nle]PKKATELKHLQCLEEELKPLEEVL[hSer]LAQSKNFHLRPRDLISNINVIVLELKGSETTF[hSer]CEYADETATIVEFLNRWITFSQSIISTLT	0.512 nM
CMP-311, MMP2 cleaved molecule (ligand, also: m77 after MMP2 cleavage: Lys23 side-chain branch (cleavable peptide) cut, remnant not given here) APTSSSTKKTQLQLEHLLLDLQKILNGINNYKNPKLTR[Nle]L[hSer][Yn3]KF[Ygp][Nle]PKKATELKHLQCLEEELKPLEEVL[hSer]LAQSKNFHLRPRDLISNINVIVLELKGSETTF[hSer]CEYADETATIVEFLNRWITFSQSIISTLT	73 pM
CMP-310, Matriptase cleaved molecule (ligand, also: m73 after matriptase cleavage: Lys23 side-chain branch (cleavable peptide) cut, remnant not given here) APTSSSTKKTQLQLEHLLLDLQKILNGINNYKNPKLTR[Nle]L[hSer][Yn3]KF[Ygp][Nle]PKKATELKHLQCLEEELKPLEEVL[hSer]LAQSKNFHLRPRDLISNINVIVLELKGSETTF[hSer]CEYADETATIVEFLNRWITFSQSIISTLT	6.9 nM
CMP-311, uPa cleaved molecule (ligand, also: m77 after uPa cleavage: Lys23 side-chain branch (cleavable peptide) cut, remnant not given here) APTSSSTKKTQLQLEHLLLDLQKILNGINNYKNPKLTR[Nle]L[hSer][Yn3]KF[Ygp][Nle]PKKATELKHLQCLEEELKPLEEVL[hSer]LAQSKNFHLRPRDLISNINVIVLELKGSETTF[hSer]CEYADETATIVEFLNRWITFSQSIISTLT	0.548 nM

Further lines, results first:

Average EC50, pSTAT5 Assay in NK cells	Binder
65 pM	CMP-314, uPa cleaved molecule (ligand, also: uPa cleavage product, not given here as a sequence, Lys23 side-chain attachment remnant unknown) APTSSSTKKTQLQLEHLLLDLQKILNGINNYKNPKLTR[Nle]L[hSer]Y(9x polyethylene glycol‑azido)KFY(8x polyethylene glycol‑amino)[Nle]PKKATELKHLQCLEEELKPLEEVL[hSer]LAQSKNFHLRPRDLISNINVIVLELKGSETTF[hSer]CEYADETATIVEFLNRWITFSQSIISTLT
0.387 nM	CMP-315, Matriptase cleaved molecule (ligand, also: matriptase cleavage product, not given here as a sequence, Lys23 side-chain attachment remnant unknown) APTSSSTKKTQLQLEHLLLDLQKILNGINNYKNPKLTR[Nle]L[hSer]Y(9x polyethylene glycol‑azido)KFY(8x polyethylene glycol‑amino)[Nle]PKKATELKHLQCLEEELKPLEEVL[hSer]LAQSKNFHLRPRDLISNINVIVLELKGSETTF[hSer]CEYADETATIVEFLNRWITFSQSIISTLT
0.335 nM	CMP-315, uPa cleaved molecule (ligand, also: uPa cleavage product, not given here as a sequence, Lys23 side-chain attachment remnant unknown) APTSSSTKKTQLQLEHLLLDLQKILNGINNYKNPKLTR[Nle]L[hSer]Y(9x polyethylene glycol‑azido)KFY(8x polyethylene glycol‑amino)[Nle]PKKATELKHLQCLEEELKPLEEVL[hSer]LAQSKNFHLRPRDLISNINVIVLELKGSETTF[hSer]CEYADETATIVEFLNRWITFSQSIISTLT
0.117 nM	CMP-314, Matriptase cleaved molecule (ligand, also: matriptase cleavage product, not given here as a sequence, Lys23 side-chain attachment remnant unknown) APTSSSTKKTQLQLEHLLLDLQKILNGINNYKNPKLTR[Nle]L[hSer]Y(9x polyethylene glycol‑azido)KFY(8x polyethylene glycol‑amino)[Nle]PKKATELKHLQCLEEELKPLEEVL[hSer]LAQSKNFHLRPRDLISNINVIVLELKGSETTF[hSer]CEYADETATIVEFLNRWITFSQSIISTLT
0.369 nM	CMP-315, MMP2 cleaved molecule (ligand, also: K23 side chain attached to another sequence, m89 after MMP2 cleavage, product not given here as a sequence) APTSSSTKKTQLQLEHLLLDLQKILNGINNYKNPKLTR[Nle]L[hSer]Y(9x polyethylene glycol‑azido)KFY(8x polyethylene glycol‑amino)[Nle]PKKATELKHLQCLEEELKPLEEVL[hSer]LAQSKNFHLRPRDLISNINVIVLELKGSETTF[hSer]CEYADETATIVEFLNRWITFSQSIISTLT
